Here are results for 6 molecules from publication PMC5932954, “Evaluation of Fluorine-18-Labeled α1(I)-N-Telopeptide Analogs as Substrate-Based Radiotracers for PET Imaging of Melanoma-Associated Lysyl Oxidase” (Frontiers in Chemistry, 2018).

Where a SMILES comes first, the peptide text is derived from it. [ ]: non-standard residue; d: D form. The star is where a group is joined. Benzoyl(4-F) = O=C(c1ccc(F)cc1)*; pGlu = O=C1CC[C@@H](C(=O)O)N1

In test [1] the target is T1, bovine type I atelocollagen (Bos taurus, UniProt P02453+P02465, DEL1103-1117).
T1 construct: bovine type I atelocollagen (=pepsin-treated type I collagen; Matrix Bioscience); purchased Matrix Bioscience
T1 sequence (P02453 178-1191 limits assumed, stated change not applied): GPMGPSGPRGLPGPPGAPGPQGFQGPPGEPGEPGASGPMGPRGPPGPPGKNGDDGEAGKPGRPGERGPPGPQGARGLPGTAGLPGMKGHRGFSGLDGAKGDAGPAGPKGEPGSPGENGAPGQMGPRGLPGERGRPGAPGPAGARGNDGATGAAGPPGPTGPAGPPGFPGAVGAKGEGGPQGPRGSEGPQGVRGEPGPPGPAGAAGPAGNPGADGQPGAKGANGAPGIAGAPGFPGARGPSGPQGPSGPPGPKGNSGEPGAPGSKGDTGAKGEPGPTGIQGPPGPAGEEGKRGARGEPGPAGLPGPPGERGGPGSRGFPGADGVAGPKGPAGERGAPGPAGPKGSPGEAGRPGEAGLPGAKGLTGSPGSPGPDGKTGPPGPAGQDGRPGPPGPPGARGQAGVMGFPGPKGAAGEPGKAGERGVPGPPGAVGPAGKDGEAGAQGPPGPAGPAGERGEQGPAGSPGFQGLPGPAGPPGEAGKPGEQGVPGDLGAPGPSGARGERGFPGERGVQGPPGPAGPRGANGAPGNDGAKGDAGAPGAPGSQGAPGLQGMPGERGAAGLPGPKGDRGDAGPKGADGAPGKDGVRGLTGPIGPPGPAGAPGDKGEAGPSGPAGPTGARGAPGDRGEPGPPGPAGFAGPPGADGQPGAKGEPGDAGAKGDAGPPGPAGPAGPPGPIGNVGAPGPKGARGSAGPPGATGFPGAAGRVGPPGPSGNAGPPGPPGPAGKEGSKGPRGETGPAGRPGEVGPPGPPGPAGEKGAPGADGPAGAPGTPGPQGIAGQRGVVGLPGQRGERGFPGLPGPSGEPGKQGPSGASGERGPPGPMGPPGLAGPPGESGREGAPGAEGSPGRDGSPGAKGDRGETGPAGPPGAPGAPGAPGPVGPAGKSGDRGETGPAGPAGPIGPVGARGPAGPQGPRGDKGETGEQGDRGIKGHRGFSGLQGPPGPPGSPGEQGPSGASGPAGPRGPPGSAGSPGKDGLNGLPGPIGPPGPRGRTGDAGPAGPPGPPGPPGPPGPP
T1 sequence (P02465 89-1102 limits assumed, stated change not applied): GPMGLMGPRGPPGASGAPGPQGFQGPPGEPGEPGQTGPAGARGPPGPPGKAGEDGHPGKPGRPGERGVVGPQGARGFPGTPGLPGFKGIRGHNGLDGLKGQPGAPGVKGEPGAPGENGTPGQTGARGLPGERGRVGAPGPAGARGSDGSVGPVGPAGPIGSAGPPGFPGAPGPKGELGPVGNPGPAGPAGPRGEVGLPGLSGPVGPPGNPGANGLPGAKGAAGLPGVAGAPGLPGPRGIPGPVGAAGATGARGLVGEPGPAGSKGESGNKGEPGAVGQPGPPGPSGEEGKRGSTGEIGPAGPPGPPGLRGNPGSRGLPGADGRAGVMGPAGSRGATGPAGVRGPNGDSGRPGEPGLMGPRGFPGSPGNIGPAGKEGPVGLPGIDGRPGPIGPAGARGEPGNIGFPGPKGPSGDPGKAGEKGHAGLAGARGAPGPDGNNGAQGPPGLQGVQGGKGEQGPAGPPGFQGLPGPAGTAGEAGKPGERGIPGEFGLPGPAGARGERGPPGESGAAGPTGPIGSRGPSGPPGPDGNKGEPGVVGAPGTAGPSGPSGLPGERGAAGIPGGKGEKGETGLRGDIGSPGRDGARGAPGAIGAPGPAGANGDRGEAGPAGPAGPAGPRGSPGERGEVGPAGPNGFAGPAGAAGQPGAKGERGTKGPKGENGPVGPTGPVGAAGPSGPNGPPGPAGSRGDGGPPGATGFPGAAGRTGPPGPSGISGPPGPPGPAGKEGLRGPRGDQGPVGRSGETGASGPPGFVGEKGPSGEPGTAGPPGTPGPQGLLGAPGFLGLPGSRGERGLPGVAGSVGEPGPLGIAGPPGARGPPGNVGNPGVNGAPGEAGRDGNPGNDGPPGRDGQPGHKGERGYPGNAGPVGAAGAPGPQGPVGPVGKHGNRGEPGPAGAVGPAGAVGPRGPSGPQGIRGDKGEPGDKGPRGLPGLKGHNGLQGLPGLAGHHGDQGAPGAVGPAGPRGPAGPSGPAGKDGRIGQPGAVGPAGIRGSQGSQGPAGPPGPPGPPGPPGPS
In words: SPR binding of telopeptide derivatives to immobilized atelocollagen. Particulars: for ka1: SPR Biacore T100, CM5 chip, analyte 45 to 950 μM, HEPES buffer pH 7.4, 25°C; for ka1 / ka2 / kd1 / kd2: two-state reaction model, mean of n = 5; for ka2 / kd1 / kd2 / Kd / kon / koff: SPR; for ka2 / kd1 / kd2 / Kd: pH 7.4, 25°C; for Kd: calculated from the individual rate constants (Equation 1); for Kd / kon / koff: n = 5; for kon: calculated as koff/KD (Equation 3), read-out: kon (global association rate constant to final complex); for koff: calculated from the individual rate constants (Equation 2), read-out: koff (global dissociation rate constant of final complex). How it is done:
In order to probe binding of the telopeptide derivatives to atelocollagen surface plasmon resonance (SPR) measurements were performed on a T100 Biacore system (GE Healthcare) (Hoppmann et al., [2010]). In brief, bovine type I atelocollagen (=pepsin-treated type I collagen; Matrix Bioscience) was immobilized as ligand on a CM5 (carboxymethylated dextran polymer) sensor chip using EDC/NHS chemistry. About 12,000 arbitrary response (resonance) units (RU) were immobilized. Various concentrations of the analytes (1, 2, and 4a) ranging from 45 to 950 μM were analyzed. The flow buffer used was 10 mM HEPES, 3.0 mM EDTA-Na2, 0.15 M NaCl (pH 7.4) containing 0.05% surfactant P20. Association and dissociation of all analytes was followed in real-time and measured at 25°C at a flow rate of 30 μL/min. After each cycle, the surface was regenerated using 50 mM NaOH. The data were fitted to a two-state reaction model (see scheme below) including reference subtraction and blank buffer correction derived from blank runs using the Biacore Evaluation software 2.0.4.
The parameters KD, koff, and kon were calculated from the individual rate constants by the following equations (Tummino and Copeland, [2008]): […]

Test [2] has as its target bovine type I atelocollagen (pepsin-treated bovine type I collagen) (bovine). In words: SPR; Biacore T100; bovine type I atelocollagen immobilised on a CM5 chip by EDC/NHS (about 12,000 RU); peptides as analytes, 45 to 950 μM; 10 mM HEPES, 3.0 mM EDTA-Na2, 0.15 M NaCl, pH 7.4, 0.05% surfactant P20; 25°C; 30 μL/min; two-state reaction model; KD, koff and kon calculated from the individual rate constants. Particulars: both partners purified.

With `CC[C@H](C)[C@H](NC(=O)CNC(=O)[C@@H](NC(=O)[C@H](CO)NC(=O)[C@H](CCCCN)NC(=O)[C@H](CCC(=O)O)NC(=O)[C@H](CC(=O)O)NC(=O)[C@H](Cc1ccc(O)cc1)NC(=O)CNC(=O)[C@H](Cc1ccc(O)cc1)NC(=O)[C@H](CO)NC(=O)[C@H](CC(C)C)NC(=O)[C@@H]1CCC(=O)N1)[C@@H](C)O)C(=O)N[C@@H](CO)C(=O)N[C@H](C(=O)N1CCC[C@H]1C(N)=O)C(C)C` [Peptide 1, pGlu-LSYGYDEKSTGISVP-NH2, reference compound] ([pGlu]LSYGYDEKSTGISVP-NH2), in test [1], the ka1 turned out to be 123 M⁻¹ s⁻¹, the ka2 was found to be 0.00532 s⁻¹, the kd1 stood at 0.75 s⁻¹ and the kd2 was 0.00294 s⁻¹. Also, in test [1], the Kd (as a rule, a measure of binding affinity in units of concentration) was 2170 µM; the kon (in general, the second-order rate constant of association) is 1.34 M⁻¹ s⁻¹; the koff (in general, the rate constant with which the complex falls apart) was 0.00291 s⁻¹.

In the case of `CC[C@H](C)[C@H](NC(=O)CNC(=O)[C@@H](NC(=O)[C@H](CO)NC(=O)[C@H](CCCCN)NC(=O)[C@H](CCC(=O)O)NC(=O)[C@H](CC(=O)O)NC(=O)[C@H](Cc1ccc(O)cc1)NC(=O)CNC(=O)[C@H](Cc1ccc(O)cc1)NC(=O)[C@H](CO)NC(=O)[C@H](CC(C)C)NC(=O)c1ccc(F)cc1)[C@@H](C)O)C(=O)N[C@@H](CO)C(=O)N[C@H](C(=O)N1CCC[C@H]1C(N)=O)C(C)C` [Peptide 2, FBz-LSYGYDEKSTGISVP-NH2] ({Benzoyl(4-F)}-LSYGYDEKSTGISVP-NH2), in test [1], the Kd is 78.8 µM, the kon was 11.2 M⁻¹ s⁻¹ and the koff is 0.000879 s⁻¹.

As for `NCCCC[C@H](NC(=O)[C@@H]1CCCN1C(=O)[C@H](CC(=O)O)NC(=O)CNC(=O)CNC(=O)CNC(=O)c1ccc(F)cc1)C(=O)NCC(=O)NCC(=O)NCC(=O)NCC(=O)NCC(N)=O` [Peptide 4a, FBz-GGGDPKGGGGG-NH2] ({Benzoyl(4-F)}-GGGDPKGGGGG-NH2), in test [1], the ka1 is 188 M⁻¹ s⁻¹, the ka2 was determined as 0.00494 s⁻¹, the kd1 was determined as 0.268 s⁻¹ and the kd2 was found to be 0.00411 s⁻¹. In addition, in test [1], the kon is 6.15 M⁻¹ s⁻¹ and the dissociation rate constant (koff) is 0.00398 s⁻¹.

B1: DPK-containing undecapeptide 4a, FBz-GGGDPKGGGGG-NH2 (peptide)
chain: {Benzoyl(4-F)}-GGGDPKGGGGG-NH2
SMILES: NCCCC[C@H](NC(=O)[C@@H]1CCCN1C(=O)[C@H](CC(=O)O)NC(=O)CNC(=O)CNC(=O)CNC(=O)c1ccc(F)cc1)C(=O)NCC(=O)NCC(=O)NCC(=O)NCC(=O)NCC(N)=O
Regarding B1, in test [2], the Kd is 647 µM; the “ka1 (two-state model, step 1)” value is 188 M⁻¹ s⁻¹; the “ka2 (two-state model, step 2)” value is 0.00494 s⁻¹; the “kd1 (two-state model, step 1)” value was 0.268 s⁻¹. Besides, in test [2], the “kd2 (two-state model, step 2)” value is 0.00411 s⁻¹; the koff is 0.00398 s⁻¹; the on-rate (kon) is 6.15 M⁻¹ s⁻¹.

B2: α1(I)-N-telopeptide (peptide 1), pGlu-LSYGYDEKSTGISVP-NH2 (peptide)
peptide: [pGlu]LSYGYDEKSTGISVP-NH2
SMILES: CC[C@H](C)[C@H](NC(=O)CNC(=O)[C@@H](NC(=O)[C@H](CO)NC(=O)[C@H](CCCCN)NC(=O)[C@H](CCC(=O)O)NC(=O)[C@H](CC(=O)O)NC(=O)[C@H](Cc1ccc(O)cc1)NC(=O)CNC(=O)[C@H](Cc1ccc(O)cc1)NC(=O)[C@H](CO)NC(=O)[C@H](CC(C)C)NC(=O)[C@@H]1CCC(=O)N1)[C@@H](C)O)C(=O)N[C@@H](CO)C(=O)N[C@H](C(=O)N1CCC[C@H]1C(N)=O)C(C)C
notes: N-terminal telopeptide of the α1 chain of type I collagen; also called N-terminal telopeptide of the α1 chain of type I collagen; authentic isolated α1(I)-N-telopeptide; source: synthetic peptide (microwave-assisted Fmoc solid-phase synthesis)
On to B2, for which, in test [2], the equilibrium dissociation constant (Kd) was 2170 µM; the “ka1 (two-state model, step 1)” value is 123 M⁻¹ s⁻¹; the “ka2 (two-state model, step 2)” value was 0.00532 s⁻¹; the “kd1 (two-state model, step 1)” value was 0.75 s⁻¹. Further, in test [2], the “kd2 (two-state model, step 2)” value was 0.00294 s⁻¹; the koff is 0.00291 s⁻¹; the on-rate constant (kon) is 1.34 M⁻¹ s⁻¹.

B3: 4-fluorobenzoylated α1(I)-N-telopeptide analog (peptide 2), FBz-LSYGYDEKSTGISVP-NH2 (peptide)
peptide: {Benzoyl(4-F)}-LSYGYDEKSTGISVP-NH2
SMILES: CC[C@H](C)[C@H](NC(=O)CNC(=O)[C@@H](NC(=O)[C@H](CO)NC(=O)[C@H](CCCCN)NC(=O)[C@H](CCC(=O)O)NC(=O)[C@H](CC(=O)O)NC(=O)[C@H](Cc1ccc(O)cc1)NC(=O)CNC(=O)[C@H](Cc1ccc(O)cc1)NC(=O)[C@H](CO)NC(=O)[C@H](CC(C)C)NC(=O)c1ccc(F)cc1)[C@@H](C)O)C(=O)N[C@@H](CO)C(=O)N[C@H](C(=O)N1CCC[C@H]1C(N)=O)C(C)C
notes: N-terminal telopeptide of the α1 chain of type I collagen without its N-terminal pyroglutamate, which is replaced by a 4-fluorobenzoyl residue; source: synthetic peptide (microwave-assisted Fmoc solid-phase synthesis, as in Kuchar et al., 2012)
For the molecule B3, in test [2], the Kd was 78.8 µM; the “ka1 (two-state model, step 1)” value is 57.4 M⁻¹ s⁻¹; the “ka2 (two-state model, step 2)” value is 0.0141 s⁻¹; the “kd1 (two-state model, step 1)” value is 0.0631 s⁻¹. In test [2], the “kd2 (two-state model, step 2)” value was 0.00109 s⁻¹; the off-rate constant (koff) is 0.000879 s⁻¹; the kon was 11.2 M⁻¹ s⁻¹.
